Laboratory results: patent US20260000597A1 (priority 2018, published 2026)
Where two headings read alike, the source gives them in different places. Non-standard residues stand in square brackets, D forms with d. Residues, ends and D or L forms follow the SMILES beside them. No end group written: not given here. *: point of attachment. Palmitoyl = CCCCCCCCCCCCCCCC(=O)*; Dab = NCC[C@H](N)C(=O)O; NHBn = c1ccc(CN*)cc1; βAla = NCCC(=O)O

Tests used:
[1] = system: BALB/c mice; assay type: in vivo
Procedure: Specifically, the DAS values for Palmitoyl-L3-37 in Example 18 were evaluated. […]; and a group treated with a saline solution (sterilized 0.9% NaCl) or 70 μg/kg bungarotoxin as a control group. Then, palmitoyl-L3-37 and the saline solution or bungarotoxin at the concentrations as above were injected each 50 μl into the hind thigh muscles of mice. Thereafter, the mice weight and the sole of the injected portion were observed and recorded every day, and the results are shown in FIGS. 37 to 39.

[2] = system: TE671 cells
Procedure: To evaluate the toxicity of Spep-1 and Spep-2, WST Assay was performed on TE671 cells.

[3] = molecular target: Acetylcholine receptor proteins (AchR) (Homo sapiens, UniProt P02708); assay type: binding; settings: for AchR binding affinity compared with Spep-2 / AchR binding affinity (resonance units: Ru) among representative peptides / AchR binding affinity: SPR; for AchR binding affinity (resonance units: Ru) among representative peptides: peptides 3 μM; for AchR binding affinity: 10 μM peptides, compared with Synake
Chain of Acetylcholine receptor proteins (AchR) (P02708 21-457): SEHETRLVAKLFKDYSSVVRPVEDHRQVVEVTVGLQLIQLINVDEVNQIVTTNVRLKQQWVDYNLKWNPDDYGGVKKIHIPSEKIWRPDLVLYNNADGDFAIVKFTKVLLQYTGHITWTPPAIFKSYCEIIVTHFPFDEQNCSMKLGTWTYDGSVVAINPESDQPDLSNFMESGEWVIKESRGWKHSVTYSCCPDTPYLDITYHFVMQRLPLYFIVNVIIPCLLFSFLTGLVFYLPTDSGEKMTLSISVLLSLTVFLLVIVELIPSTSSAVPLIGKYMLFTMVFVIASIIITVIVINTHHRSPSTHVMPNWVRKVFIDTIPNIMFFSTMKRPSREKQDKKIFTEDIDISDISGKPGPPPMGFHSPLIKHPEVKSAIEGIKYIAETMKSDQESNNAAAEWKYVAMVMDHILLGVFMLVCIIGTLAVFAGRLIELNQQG
Procedure: Spep-1 to Spep-11 selected in Example 1 were synthesized, and the AchR binding affinity was compared thereamong using a surface plasmon resonance (SPR) analyzer (Biacore3000, Biacore A, Sweden). […]
The treatment concentrations of Spep-2 were 0.12 to 1 μM, and the dissociation constant was compared while Synake was used as a positive control.

[4] = molecular target: T1, AchR (Homo sapiens, UniProt P02708); test: ELISA of screened peptide phages on AchR versus streptavidin (OD450); assay type: binding; settings: absorbance at 450 nm
Outline: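 Phage supernatants from 4th–5th round plaques, in 2% BSA, applied 1 h at 30 °C to wells coated with 5 μg/ml AchR or streptavidin. Bound phage detected with HRP anti-M13 and TMB at OD450; value given as AchR/streptavidin signal ratio.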
Target sequence in this assay (P02708 21-457): as above

[5] = molecular target: T1, AchR; test: cell-based; assay type: cell-based; set-up: endogenous in cells; host or cells: TE671; settings: for AchR inhibitory effect: acetylcholine treatment
Target sequence in this assay (P02708 21-457): as above
Target sequence in this assay (Q07001 22-517, further chain): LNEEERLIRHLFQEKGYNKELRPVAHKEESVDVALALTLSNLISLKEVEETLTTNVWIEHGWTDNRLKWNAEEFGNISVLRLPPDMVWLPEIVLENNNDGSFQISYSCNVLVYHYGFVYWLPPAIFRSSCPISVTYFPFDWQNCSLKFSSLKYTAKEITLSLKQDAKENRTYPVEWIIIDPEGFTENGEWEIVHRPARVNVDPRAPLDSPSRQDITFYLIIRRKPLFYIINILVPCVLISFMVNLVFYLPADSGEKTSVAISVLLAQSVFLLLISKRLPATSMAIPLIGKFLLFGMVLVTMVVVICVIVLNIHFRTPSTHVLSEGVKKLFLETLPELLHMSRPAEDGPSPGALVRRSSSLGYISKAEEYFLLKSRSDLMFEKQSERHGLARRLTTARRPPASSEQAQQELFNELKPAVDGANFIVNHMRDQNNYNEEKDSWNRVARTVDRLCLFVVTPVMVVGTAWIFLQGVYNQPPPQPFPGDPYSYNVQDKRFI
Target sequence in this assay (P07510 23-517, further chain): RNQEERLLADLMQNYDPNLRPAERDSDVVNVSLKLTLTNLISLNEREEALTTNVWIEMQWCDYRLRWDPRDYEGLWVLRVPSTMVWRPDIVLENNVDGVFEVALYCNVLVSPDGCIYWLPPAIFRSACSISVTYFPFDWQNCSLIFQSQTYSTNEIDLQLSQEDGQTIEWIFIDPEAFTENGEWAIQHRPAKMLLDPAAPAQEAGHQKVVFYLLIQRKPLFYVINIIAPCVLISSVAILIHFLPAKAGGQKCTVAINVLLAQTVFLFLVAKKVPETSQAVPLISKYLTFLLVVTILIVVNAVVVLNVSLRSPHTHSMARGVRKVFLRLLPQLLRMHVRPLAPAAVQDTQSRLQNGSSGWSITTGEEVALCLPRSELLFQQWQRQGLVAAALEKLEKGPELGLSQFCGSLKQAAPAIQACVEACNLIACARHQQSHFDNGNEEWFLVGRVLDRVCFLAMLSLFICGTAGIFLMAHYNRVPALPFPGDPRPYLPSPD
Target sequence in this assay (P11230 24-501, further chain): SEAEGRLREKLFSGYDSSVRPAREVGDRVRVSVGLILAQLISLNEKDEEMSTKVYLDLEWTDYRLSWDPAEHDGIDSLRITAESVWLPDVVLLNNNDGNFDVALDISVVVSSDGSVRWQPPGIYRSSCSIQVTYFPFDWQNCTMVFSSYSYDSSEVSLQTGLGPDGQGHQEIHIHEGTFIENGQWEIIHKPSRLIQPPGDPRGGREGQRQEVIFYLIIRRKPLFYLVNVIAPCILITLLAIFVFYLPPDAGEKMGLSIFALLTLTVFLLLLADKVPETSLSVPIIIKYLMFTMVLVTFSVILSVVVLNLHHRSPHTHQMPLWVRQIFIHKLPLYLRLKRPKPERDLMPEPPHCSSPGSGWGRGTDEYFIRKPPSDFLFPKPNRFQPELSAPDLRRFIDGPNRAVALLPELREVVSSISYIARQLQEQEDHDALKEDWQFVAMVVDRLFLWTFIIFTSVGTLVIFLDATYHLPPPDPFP

[6] = ELISA of selected 11-mer (L2) peptide phages on AchR, Spep-2 positive control
[7] = ELISA of selected 14-mer (L3) peptide phages on AchR, Spep-2 positive control
[8] = phage ELISA, 5 μg/ml AchR, 4th and 5th round biopanning phages

CCCCCCCCCCCCCCCC(=O)N[C@@H](CO)C(=O)N[C@@H](CC(N)=O)C(=O)N[C@H](C(=O)N[C@@H](CCCCN)C(=O)N[C@@H](CCCNC(=N)N)C(=O)N[C@@H](CCCCN)C(=O)N[C@@H](CCCNC(=N)N)C(=O)NCC(=O)N[C@@H](CCCNC(=N)N)C(=O)N[C@@H](CS)C(=O)N[C@@H](CCCCN)C(=O)N1CCC[C@H]1C(=O)N[C@@H](Cc1ccc(O)cc1)C(=O)N[C@@H](CCCNC(=N)N)C(=O)O)C(C)C [Palmitoyl-L3-37] (Palmitoyl-SNVKRKRGRCKPYR-OH)
weight of mice ([1]; all groups, 7 days after administration): gradually increased
acute toxicity ([1]; up to 25 mg/kg IM, 7 days): no toxicity was observed

CCCCCCCCCCCCCCCC(=O)N[C@@H](Cc1c[nH]c2ccccc12)C(=O)N[C@H](C(=O)N[C@@H](Cc1c[nH]c2ccccc12)C(=O)N[C@@H](CCCCN)C(=O)NCC(=O)N[C@@H](CCCNC(=N)N)C(=O)N[C@@H](CCCCN)C(=O)N[C@@H](CO)C(=O)N[C@@H](CC(C)C)C(=O)N[C@@H](CC(C)C)C(=O)N[C@@H](CCCNC(=N)N)C(=O)O)[C@@H](C)O [Palmitoyl-Spep-2] (Palmitoyl-WTWKGRKSLLR-OH)
cytotoxicity (WST assay) [2]: no cytotoxicity

NCCC(=O)N1CCC[C@H]1C(=O)N[C@@H](CCN)C(=O)NCc1ccccc1 [Synake, reference compound] (H-[βAla]-Pro-[Dab]-NHBn; N-terminus and C-terminus assumed)
toxicity (WST assay) ([2]; TE671 cells, treatment concentration of 100 μM): no toxicity

GRKSLLR [Spep-2-ND4]
AchR binding affinity compared with Spep-2 [3]: significantly reduced binding affinity

L2-110: 11-mer optimized peptide of the L2 library (Table 11, not shown here) (RYAKHRKRQTR; AchR binding peptide) [Peptide L2-110]
AchR binding affinity (resonance units: Ru) among representative peptides [3]: higher binding affinity to AchR compared with the 8-mer L1-13
OD [4, 6]: 0.831
AchR inhibition ([5]; nicotine 400 μM, peptide 5 μM): could not inhibit

L3-27: 14-mer optimized peptide of the L3 library (Table 12, not shown here) (RARKKRKSLLRRQV; AchR binding peptide) [Peptide L3-27]
AchR binding affinity (resonance units: Ru) among representative peptides [3]: highest binding affinity
OD [4, 7]: 0.83
AchR inhibition ([5]; nicotine 400 μM, peptide 1 μM): 50%
AchR inhibition ([5]; nicotine 400 μM, peptide 5 μM): could not inhibit

L3-28: 14-mer optimized peptide of the L3 library (Table 12, not shown here) (PNGKVRKRIRRRYF; AchR binding peptide) [Peptide L3-28]
AchR binding affinity (resonance units: Ru) among representative peptides [3]: highest binding affinity
OD [4, 7]: 0.803
AchR inhibition ([5]; nicotine 400 μM, peptide 2.5 μM): could not inhibit

L3-37: 14-mer optimized peptide of the L3 library (Table 12, not shown here) (SNVKRKRGRCKPYR; AchR binding peptide) [Peptide L3-37]
AchR binding affinity (resonance units: Ru) among representative peptides [3]: highest binding affinity
OD [4, 7]: 0.69

RKSLLR [Spep-2-ND5, RKSLLR]
binding affinity reduced compared with Spep-2 (11-mer) [3]: 48 times
AchR binding affinity compared with Spep-2 [3]: significantly reduced binding affinity

RTKKENVK [Peptide L1-180]
OD [4, 8]: 0.618

RTKRWQLK [Peptide L1-94]
OD [4, 8]: 0.496

RTRKCVLK [Peptide L1-89]
OD [4, 8]: 0.551

RVKKAETR [Peptide L1-92]
OD [4, 8]: 0.581

RVKRFVPK [Peptide L1-112]
OD [4, 8]: 0.431

RVRRDGHR [Peptide L1-49]
OD [4, 8]: 0.504

RVRRSWIR [Peptide L1-72]
OD [4, 8]: 0.616

RWKKNINK [Peptide L1-80]
OD [4, 8]: 0.631

RWKRSEQR [Peptide L1-32]
OD [4, 8]: 0.607

RWRRSVIK [Peptide L1-106]
OD [4, 8]: 0.417

RYKKQQYK [Peptide L1-167]
OD [4, 8]: 0.581

RYKKVPAK [Peptide L1-118]
OD [4, 8]: 0.471

RYRRWFYR [Peptide L1-155]
OD [4, 8]: 0.618

WTWKGKGTLNR [Spep-1, WTWKGKGTLNR]
toxicity (WST assay) [2]: no toxicity

WTWKGNKQVKF [Spep-10]
AchR binding affinity [3]: high AchR binding affinity compared with Synake

WTWKGRDKLQM [Spep-4]
AchR binding affinity [3]: high AchR binding affinity compared with Synake

WTWKGRKSLLR [Spep-2, WTWKGRKSLLR]
AchR binding affinity [3]: high AchR binding affinity compared with Synake
AchR binding affinity superior to that of Synake ([3]; from Kd values): about 2,000 times
toxicity (WST assay) [2]: no toxicity
OD [4, 6]: 0.303
OD [4, 7]: 0.303
OD [4, 8]: 0.303
IC50 [5]: 750 nM
AchR inhibitory effect ([5]; peptide 0.5 μM, TE671 cells): 90%
AchR inhibitory effect ([5]; peptide 5 μM, TE671 cells): 100%
AchR inhibitory rate ([5]; nicotine 400 μM, peptide 20 μM, TE671 cells): about 10%
AchR inhibition ([5]; nicotine 400 μM, peptide 70 μM): could not inhibit
AchR inhibition ([5]; nicotine 400 μM, peptide 80 μM): 100%
nicotinic acetylcholine receptor inhibitory effects ([5]; nicotine treatment, compared with Synake, TE671 cells): excellent nicotinic acetylcholine receptor inhibitory effects
